Values of other authors as cited in publication PMC3831880.

Target: HPr (Escherichia coli) (UniProt P0AA04)
Test: PRE titration

Substance: Enzyme I N-terminal domain (EIN) N-terminal domain (from UniProt P08839)
- Kd: 7 µM
